In the Human Domainome abundance scans (Beltran et al. 2025):
± gives the uncertainty stated by the source.

B1: Zinc finger protein ZIC 2, residues 250 to 295; numbered along this chain, O95409 (parent)
chain: QCIKQELICKWIDPEQLSNPKKSCNKTFSTMHELVTHVSVEHVGGP
B2: Homeobox protein SIX3, residues 212 to 262; numbered along this chain, O95343 (parent)
chain: CFKERTRSLLREWYLQDPYPNPSKKRELAQATGLTPTQVGNWFKNRRQRDR

Variants of: B1
Experiment: abundance fitness (aPCA) (normalised: wild type 0, dead -1); higher = more abundant; growth selection in yeast, the domain comes from the species named
Conditions: Homo sapiens

Row | Variant | abundance fitness
1 | Q1P | -0.915 ± 0.24
2 | Q1K | -0.455 ± 0.25
3 | Q1G | -0.22 ± 0.12
4 | Q1S | 0.503 ± 0.16
5 | Q1N | 0.294 ± 0.16
6 | Q1A | 0.373 ± 0.31
7 | Q1W | -0.321 ± 0.31
8 | Q1M | -0.131 ± 0.34
9 | Q1V | -0.349 ± 0.17
10 | Q1E | -0.077 ± 0.16
11 | Q1Y | -0.705 ± 0.25
12 | Q1H | -0.101 ± 0.16
13 | Q1D | 0.21 ± 0.17
14 | Q1C | -0.274 ± 0.23
15 | Q1L | -0.356 ± 0.12
16 | Q1T | 0.146 ± 0.35
17 | C2N | -0.176 ± 0.16
18 | C2L | 0.73 ± 0.09
19 | C2E | 0.123 ± 0.12
20 | C2F | -0.182 ± 0.12
21 | C2M | 0.612 ± 0.12
22 | C2G | 0.259 ± 0.085
23 | C2K | 0.194 ± 0.15
24 | C2Q | 0.127 ± 0.12
25 | C2R | -0.129 ± 0.085
26 | C2P | -0.136 ± 0.13

Row | Variant | abundance fitness
27 | C2I | 0.605 ± 0.12
28 | C2V | 0.419 ± 0.095
29 | C2H | -0.126 ± 0.12
30 | C2D | 0.108 ± 0.13
31 | C2T | 0.126 ± 0.12
32 | C2S | 0.047 ± 0.088
33 | I3L | -0.254 ± 0.092
34 | I3T | 0.052 ± 0.1
35 | I3P | -0.586 ± 0.11
36 | I3F | -0.57 ± 0.12
37 | I3K | -0.652 ± 0.12
38 | I3V | -0.248 ± 0.089
39 | I3R | -0.61 ± 0.09
40 | I3D | -0.541 ± 0.12
41 | I3S | -0.526 ± 0.095
42 | I3H | -0.518 ± 0.12
43 | I3C | -0.673 ± 0.11
44 | I3A | -0.568 ± 0.096
45 | I3E | -0.352 ± 0.1
46 | I3W | -0.376 ± 0.1
47 | I3N | -0.602 ± 0.12
48 | I3Y | -0.151 ± 0.14
49 | I3M | 0.174 ± 0.11
50 | I3Q | 0.224 ± 0.1
51 | K4I | -0.734 ± 0.14
52 | K4C | -0.411 ± 0.13

Row | Variant | abundance fitness
53 | K4L | -0.184 ± 0.093
54 | K4W | -1.05 ± 0.14
55 | K4N | -0.085 ± 0.13
56 | K4T | -0.304 ± 0.13
57 | K4V | -0.513 ± 0.098
58 | K4D | 0.261 ± 0.12
59 | K4S | -0.204 ± 0.096
60 | K4G | -0.309 ± 0.089
61 | K4F | -0.645 ± 0.13
62 | K4E | 0.088 ± 0.099
63 | K4M | -0.105 ± 0.11
64 | K4Y | -0.671 ± 0.15
65 | K4Q | -0.458 ± 0.13
66 | K4H | -0.816 ± 0.21
67 | K4P | -0.236 ± 0.13
68 | K4A | -0.187 ± 0.1
69 | Q5I | -0.906 ± 0.11
70 | Q5C | -0.733 ± 0.11
71 | Q5A | -0.071 ± 0.098
72 | Q5G | -0.283 ± 0.13
73 | Q5E | 0.242 ± 0.23
74 | Q5D | 0.366 ± 0.11
75 | Q5H | -0.382 ± 0.089
76 | Q5F | -0.612 ± 0.097

Variants of: B2
Experiment: as above
Conditions: Homo sapiens

Row | Variant | abundance fitness
77 | W42R | -0.933 ± 0.079
78 | N45V | -0.493 ± 0.1
79 | N45I | -0.429 ± 0.047
80 | A29S | -0.125 ± 0.084
81 | A29L | -0.911 ± 0.18
82 | T32C | -0.026 ± 0.055
83 | T32K | -1.02 ± 0.18
84 | T32D | -0.96 ± 0.12
85 | K3A | -0.3 ± 0.037
86 | K3D | -0.037 ± 0.068
87 | R5K | -0.394 ± 0.31
88 | R5A | -0.075 ± 0.09
89 | R5C | -0.359 ± 0.39
90 | P36K | -0.048 ± 0.074
91 | Y14A | -0.896 ± 0.059
92 | Y14W | -0.711 ± 0.1
93 | Y19E | -0.591 ± 0.14
94 | Y19F | -0.089 ± 0.085
95 | Y19P | -0.85 ± 0.087
96 | E4G | -0.532 ± 0.13
97 | T37Q | 0.211 ± 0.078
98 | R46G | -0.937 ± 0.058
99 | R11L | -0.026 ± 0.058

Row | Variant | abundance fitness
100 | Q30E | -0.068 ± 0.094
101 | F2G | -0.04 ± 0.045
102 | F2I | -0.047 ± 0.1
103 | L34S | -0.623 ± 0.089
104 | T35H | -0.763 ± 0.41
105 | T35E | -0.809 ± 0.16
106 | T35G | -0.827 ± 0.063
107 | T35D | -0.697 ± 0.096
108 | Q16H | -0.173 ± 0.14
109 | Q16G | -0.564 ± 0.047
110 | Q16W | -0.327 ± 0.096
111 | C1F | 0.499 ± 0.16
112 | T6M | -0.115 ± 0.049
113 | T6R | -0.401 ± 0.072
114 | K44S | -0.192 ± 0.065
115 | K44C | -0.807 ± 0.24
116 | K44L | -0.407 ± 0.074
117 | K44E | -0.086 ± 0.079
118 | K44I | -0.629 ± 0.16
119 | R26Q | 0.091 ± 0.09
120 | R26W | -0.266 ± 0.066
121 | R26G | -0.209 ± 0.067
122 | A31T | -0.147 ± 0.063

Row | Variant | abundance fitness
123 | A31L | 0.088 ± 0.065
124 | E12S | -0.236 ± 0.083
125 | E12M | -0.282 ± 0.066
126 | N41S | -0.204 ± 0.1
127 | N41G | -0.55 ± 0.12
128 | N41V | -0.325 ± 0.12
129 | R47Q | -0.473 ± 0.052
130 | R7Q | -0.137 ± 0.2
131 | R49V | -0.153 ± 0.082
132 | R49Q | 0.018 ± 0.089
133 | G33M | -0.75 ± 0.11
134 | V39P | -0.972 ± 0.12
135 | Q38T | -0.43 ± 0.15
136 | Q38E | -0.606 ± 0.19
137 | L15D | 0.114 ± 0.11
138 | R51G | -0.375 ± 0.076
139 | R51D | 0.246 ± 0.16
140 | R51E | -0.155 ± 0.21
141 | G40H | -0.122 ± 0.11
142 | D50Y | -0.6 ± 0.17
143 | D50G | -0.609 ± 0.047
144 | D17A | -0.89 ± 0.14
145 | D17H | -1.04 ± 0.23

Row | Variant | abundance fitness
146 | D17Y | -1 ± 0.41
147 | P20C | -0.486 ± 0.29
148 | P20G | -0.764 ± 0.055
149 | L28Q | -0.872 ± 0.11
150 | L28C | -0.59 ± 0.045
151 | L28E | -1.04 ± 0.28
152 | E27W | -0.678 ± 0.083
153 | L10Q | -0.972 ± 0.15
154 | K25S | -0.478 ± 0.085
155 | P22A | -0.108 ± 0.061
156 | P22I | -0.014 ± 0.05
157 | F43T | -0.951 ± 0.14
158 | S23G | -0.079 ± 0.056
159 | S23C | -0.166 ± 0.17
160 | S23M | -0.277 ± 0.14
161 | W13Q | 0.026 ± 0.052
162 | W13S | -0.069 ± 0.079
163 | W13E | -0.078 ± 0.056
164 | N21H | -0.171 ± 0.097
165 | N21P | 0.027 ± 0.063
166 | N21A | -0.159 ± 0.052
167 | N21F | -0.499 ± 0.21
